Experimental data as given in PMC8948467.

What was measured:
[1] = molecular target: IgM of the IgM/IgA-enriched immunoglobulin Pentaglobin; assay: non-reducing SDS-PAGE with Western blot; Pentaglobin separated by non-reducing SDS-PAGE, transferred to nitrocellulose; J-chain, IgA and IgM detected with specific antibodies and fluorophore labeled secondary antibodies
[2] = molecular target: IgA of the IgM/IgA-enriched immunoglobulin Pentaglobin; assay: as above

IgA of the IgM/IgA-enriched immunoglobulin Pentaglobin, sequence (P01876 whole entry): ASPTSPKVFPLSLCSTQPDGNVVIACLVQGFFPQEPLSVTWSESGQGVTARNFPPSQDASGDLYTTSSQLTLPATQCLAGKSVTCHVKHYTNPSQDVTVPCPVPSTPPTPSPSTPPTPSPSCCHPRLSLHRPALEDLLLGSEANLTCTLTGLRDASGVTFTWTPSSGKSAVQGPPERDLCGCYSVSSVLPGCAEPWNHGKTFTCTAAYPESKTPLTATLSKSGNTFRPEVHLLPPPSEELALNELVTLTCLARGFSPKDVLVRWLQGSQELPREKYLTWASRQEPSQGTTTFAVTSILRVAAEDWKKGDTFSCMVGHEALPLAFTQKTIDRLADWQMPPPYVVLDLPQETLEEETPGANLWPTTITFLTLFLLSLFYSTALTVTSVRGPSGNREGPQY
IgM of the IgM/IgA-enriched immunoglobulin Pentaglobin, sequence (P01871 whole entry): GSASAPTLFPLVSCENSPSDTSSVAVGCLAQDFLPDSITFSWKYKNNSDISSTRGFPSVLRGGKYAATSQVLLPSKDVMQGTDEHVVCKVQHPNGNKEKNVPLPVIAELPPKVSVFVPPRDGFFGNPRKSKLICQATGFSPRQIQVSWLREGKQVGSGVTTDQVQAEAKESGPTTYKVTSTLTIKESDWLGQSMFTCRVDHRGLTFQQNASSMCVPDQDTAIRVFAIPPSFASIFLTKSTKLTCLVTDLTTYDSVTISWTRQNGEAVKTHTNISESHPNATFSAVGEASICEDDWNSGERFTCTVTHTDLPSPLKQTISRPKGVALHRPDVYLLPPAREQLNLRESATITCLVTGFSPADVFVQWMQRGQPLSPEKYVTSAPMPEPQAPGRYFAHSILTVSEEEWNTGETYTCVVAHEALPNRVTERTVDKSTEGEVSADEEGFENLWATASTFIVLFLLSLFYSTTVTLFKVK

Substance	stoichiometry N [1]	stoichiometry N [2]
IgM of the IgM/IgA-enriched immunoglobulin Pentaglobin (natural protein)	5	
IgA of the IgM/IgA-enriched immunoglobulin Pentaglobin (natural protein)		2
